Laboratory results reported in patent publication US20210079099A1 (VESTLANDETS INNOVASJONSSELSKAP, published 2021).
Values belong to the binder of their own block, whether it stands above or below them.

Experiments:
Experiment in all cases: flow cytometry on fixed transfected C2C12 cells
[1] = molecular target: T1, human integrin α11-EGFP expressed on C2C12 mouse myoblast cells (human, UniProt Q9UKX5 23-1188)
T1 construct: whole, on cells; Alpha chain fused to EGFP, expressed in mouse C2C12 cells, which express no human integrins; the beta-1 partner chain on these cells is not described; In the Western blot the cell lysate was used; also called C2C12-α11 EGFP; C2C12-hu α11-EGFP; not shown: EGFP tag
T1 sequence (looked up): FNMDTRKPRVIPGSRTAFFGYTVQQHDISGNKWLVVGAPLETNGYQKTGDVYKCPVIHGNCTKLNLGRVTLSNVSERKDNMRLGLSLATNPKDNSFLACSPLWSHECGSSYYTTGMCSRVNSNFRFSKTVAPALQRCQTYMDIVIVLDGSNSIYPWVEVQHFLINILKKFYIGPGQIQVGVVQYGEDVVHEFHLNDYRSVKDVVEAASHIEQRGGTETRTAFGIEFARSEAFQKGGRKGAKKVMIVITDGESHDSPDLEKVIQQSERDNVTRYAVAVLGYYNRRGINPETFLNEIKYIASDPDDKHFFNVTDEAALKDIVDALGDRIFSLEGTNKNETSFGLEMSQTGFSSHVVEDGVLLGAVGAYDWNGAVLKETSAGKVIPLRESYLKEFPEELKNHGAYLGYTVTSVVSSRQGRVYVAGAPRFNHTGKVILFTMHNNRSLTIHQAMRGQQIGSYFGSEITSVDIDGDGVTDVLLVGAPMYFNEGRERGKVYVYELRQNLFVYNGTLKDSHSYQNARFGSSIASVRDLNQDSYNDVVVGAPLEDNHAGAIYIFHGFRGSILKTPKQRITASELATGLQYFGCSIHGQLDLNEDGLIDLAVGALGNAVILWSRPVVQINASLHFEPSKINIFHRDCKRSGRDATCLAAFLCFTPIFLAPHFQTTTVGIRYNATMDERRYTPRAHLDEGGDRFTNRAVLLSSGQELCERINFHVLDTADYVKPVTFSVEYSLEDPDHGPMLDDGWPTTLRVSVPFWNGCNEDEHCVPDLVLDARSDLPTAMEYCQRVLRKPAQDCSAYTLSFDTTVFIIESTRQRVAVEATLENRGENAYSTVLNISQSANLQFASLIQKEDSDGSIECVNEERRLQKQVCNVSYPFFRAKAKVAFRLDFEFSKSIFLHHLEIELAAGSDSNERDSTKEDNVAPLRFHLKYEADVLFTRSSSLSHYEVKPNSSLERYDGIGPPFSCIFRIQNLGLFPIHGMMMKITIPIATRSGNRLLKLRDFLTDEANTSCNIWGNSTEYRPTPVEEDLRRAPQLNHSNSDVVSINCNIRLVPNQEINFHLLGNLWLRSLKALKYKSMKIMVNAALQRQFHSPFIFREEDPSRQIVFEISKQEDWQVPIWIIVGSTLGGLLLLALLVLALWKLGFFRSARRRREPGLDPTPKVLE
Procedure: (§1) To identify the epitope of the deposited integrin alpha-11 monoclonal antibodies. C2C12 cells were transfected with plasmids containing cDNAs encoding human integrin alpha-2-mCherry, human integrin alpha-11-EGFP, chimeric alpha-11Ialpha2mCherry or chimeric alpha-21-alpha-11EGFP as shown in FIG. 4a. Transfection was conducted as described in the art. 2% paraformaldehyde/PBS fixed transfected C2C12 cells were incubated with either antibody 203E1H5, see FIG. 4b or with antibody 234H11E8, see FIG. 4c, mouse anti-human alpha-11 IgG antibodies according to the present invention and then incubated with conjugated goat-anti mouse IgG, Alexa Fluor® 647 and analysed using a FACS Accuri measuring the dye accordingly.

[2] = molecular target: T2, human integrin alpha-2-mCherry expressed on C2C12 cells (human, UniProt P17301 30-1181)
T2 construct: whole, on cells; Transfected C2C12 cells fixed with 2% paraformaldehyde/PBS before staining; not shown: mCherry tag
T2 sequence (looked up): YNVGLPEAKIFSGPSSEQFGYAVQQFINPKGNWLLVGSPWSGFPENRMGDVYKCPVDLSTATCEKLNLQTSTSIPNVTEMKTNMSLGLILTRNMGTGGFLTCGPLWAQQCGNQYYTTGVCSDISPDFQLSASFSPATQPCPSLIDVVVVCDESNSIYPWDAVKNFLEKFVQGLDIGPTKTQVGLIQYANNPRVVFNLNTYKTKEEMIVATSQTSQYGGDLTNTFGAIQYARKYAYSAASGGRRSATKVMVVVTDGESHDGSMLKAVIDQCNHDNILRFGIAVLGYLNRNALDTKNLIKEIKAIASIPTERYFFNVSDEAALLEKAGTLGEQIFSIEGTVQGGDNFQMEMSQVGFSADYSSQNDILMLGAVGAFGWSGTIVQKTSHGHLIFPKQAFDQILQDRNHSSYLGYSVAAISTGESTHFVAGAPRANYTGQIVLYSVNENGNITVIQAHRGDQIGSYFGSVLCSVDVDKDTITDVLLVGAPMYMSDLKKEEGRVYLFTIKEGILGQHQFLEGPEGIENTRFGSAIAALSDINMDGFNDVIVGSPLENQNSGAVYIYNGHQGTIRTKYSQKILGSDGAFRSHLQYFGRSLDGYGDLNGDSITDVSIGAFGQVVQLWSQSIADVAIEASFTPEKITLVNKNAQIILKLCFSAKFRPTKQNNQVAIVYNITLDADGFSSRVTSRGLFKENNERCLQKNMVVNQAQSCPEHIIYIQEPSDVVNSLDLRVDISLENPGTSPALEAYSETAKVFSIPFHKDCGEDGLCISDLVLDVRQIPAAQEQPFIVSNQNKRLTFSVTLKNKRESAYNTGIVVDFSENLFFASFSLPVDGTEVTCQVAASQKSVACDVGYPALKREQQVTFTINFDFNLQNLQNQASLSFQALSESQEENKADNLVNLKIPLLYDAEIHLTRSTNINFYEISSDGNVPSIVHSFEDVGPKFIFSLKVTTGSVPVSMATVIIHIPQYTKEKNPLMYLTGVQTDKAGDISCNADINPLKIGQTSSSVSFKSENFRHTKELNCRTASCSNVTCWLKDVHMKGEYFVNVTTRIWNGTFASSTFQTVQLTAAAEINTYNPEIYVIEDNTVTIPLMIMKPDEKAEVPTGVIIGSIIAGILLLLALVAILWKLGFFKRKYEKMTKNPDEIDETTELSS
Procedure: as §1

[3] = molecular target: T3, chimeric human integrin alpha-2 carrying the alpha-11 I-domain, mCherry fusion, on C2C12 cells (human, UniProt P17301 30-168; Q9UKX5 161-355; P17301 367-1181)
T3 construct: also called chimeric alpha-11Ialpha2mCherry; not shown: mCherry tag
T3 sequence (looked up): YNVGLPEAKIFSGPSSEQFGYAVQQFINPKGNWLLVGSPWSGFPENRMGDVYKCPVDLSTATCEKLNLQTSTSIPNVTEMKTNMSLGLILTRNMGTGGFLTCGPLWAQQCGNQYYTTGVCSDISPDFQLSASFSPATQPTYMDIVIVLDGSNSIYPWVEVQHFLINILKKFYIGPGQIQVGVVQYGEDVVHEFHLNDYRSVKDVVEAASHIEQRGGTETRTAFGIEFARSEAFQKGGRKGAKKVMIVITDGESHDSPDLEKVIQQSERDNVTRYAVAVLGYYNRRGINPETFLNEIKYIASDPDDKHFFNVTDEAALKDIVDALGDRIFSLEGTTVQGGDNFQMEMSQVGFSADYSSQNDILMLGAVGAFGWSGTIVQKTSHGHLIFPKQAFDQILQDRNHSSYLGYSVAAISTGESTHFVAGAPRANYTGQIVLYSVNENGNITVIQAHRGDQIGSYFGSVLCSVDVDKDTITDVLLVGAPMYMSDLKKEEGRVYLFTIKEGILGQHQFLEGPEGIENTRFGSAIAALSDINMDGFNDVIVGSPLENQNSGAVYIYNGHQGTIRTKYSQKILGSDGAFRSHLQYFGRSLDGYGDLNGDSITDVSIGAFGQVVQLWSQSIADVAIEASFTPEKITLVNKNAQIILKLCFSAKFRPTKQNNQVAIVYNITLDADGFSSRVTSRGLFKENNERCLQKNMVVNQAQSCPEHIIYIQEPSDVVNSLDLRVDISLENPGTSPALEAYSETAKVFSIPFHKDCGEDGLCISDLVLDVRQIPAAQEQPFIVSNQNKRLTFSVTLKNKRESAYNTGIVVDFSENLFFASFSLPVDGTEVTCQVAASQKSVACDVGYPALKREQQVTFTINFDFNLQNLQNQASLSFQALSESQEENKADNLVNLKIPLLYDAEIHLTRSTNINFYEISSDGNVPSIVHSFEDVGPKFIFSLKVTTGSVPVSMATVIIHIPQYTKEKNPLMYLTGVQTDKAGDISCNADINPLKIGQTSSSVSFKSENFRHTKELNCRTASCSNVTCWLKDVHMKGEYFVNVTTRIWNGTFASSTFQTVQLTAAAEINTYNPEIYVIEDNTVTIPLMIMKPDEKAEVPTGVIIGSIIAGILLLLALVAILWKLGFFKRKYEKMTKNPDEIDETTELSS
Procedure: as §1

binding result [1]: binds
binding result [2]: no binding
binding result [3]: no binding
B1: monoclonal mouse antibody 234 H11E8 produced by the hybridoma deposited as DSM ACC3319 (antibody, V domains shown)
VH: QVQLKESGPGLVAPSQSLSITCTVSGFSLTNSAVHWVRQSPGKGLEWLGVVWSYGSTDYNAAFISRLSITKDNSKSQVFFKMNSLQADDTAIYYCARSQIYADYYDYFDYWGQGTTLTVSS
VL: DIQMTQSTSSLSASLGDRVTISCRASQDISNFLNWSQQKPDGTVKLLIYYTSRLHSGVPSRFSGSGSGTDYSLTISNLEQEDIGTYFCQQGNTLPLTFGAGTKLELR
notes: Mouse anti-human alpha-11 IgG from a hybridoma (NT-HRM mice); used as hybridoma supernatant or mAb; constant regions are not; also called 234H11E8 mAb; α11 234H11E8 mAb

binding result [2]: no binding
binding result [3]: no binding
B2: monoclonal mouse antibody 203 E1H5 produced by the hybridoma deposited as DSM ACC3318 (antibody, V domains shown)
VH: QVQLKESGPGLVAPSQSLSITCTVSGFSLTNYAVHWVRQSPGKGLEWLGVIWSYGSTDYNAAFISKLSISKDNSKSQVFFTMSSLQADDTAIYYCARSQIYGGFYDFFDFWGQGTTLTVSS
VL: CDIQMTQTPSSLSASLGDRVTIICRASQDISNFLNWFQQKPDGTIKLLIYYSSRLHSGVPSRFSGSGSGTDYSLTISNLEQEDLATYFCQQGNTLPLTFGAGTKLELT
notes: Mouse anti-human alpha-11 IgG from a hybridoma (NT-HRM mice); used as hybridoma supernatant or mAb; also called 203E1H5 mAb; α11 203E1H5 mAb
